The values that follow come from the DeepSol protein solubility set.

The data set can be described thus: soluble on expression in E. coli; label from the status in PepcDB or PDB records.
Regarding “MLLKSHHSGGRKTRFLTVLDVGSSKIVCLIACLRPLKHAHYLHGRTHSMEILGFGVQRSRGIKSGVVMDIFAAEQSIRLAVDAAEKMAGLVVDSVIVNFSSSRLQSALINGVVSLNGREVTKRDIRVAFADVSRKAFNAERHVVHSVPVSYVLDGDKGISDPVGMIGDFFGVDVHVVTAETAALRNLETCINRAHLSVEAMVVTPFASGLAVLMNDEAHLGAACIDFGGGTTTFSVFSEGKFVHANALAVGGHHVTLDVARGFSMSLPEAERLKVVYGSALVTSADERHMVNVTEIGNEHREIQYPRAVLGRIIRARVEEILEMVRDCLNRSGFGHIIGKRVILTGGASQLTGLPEMARTILGRNVRIGRPLGISRLPSLAKGAAFTSAVGLLIYPQLVGFEEKTMQVAVNHLSTGTRGYFQRVGQWLRESF”, the “soluble on expression in E. coli” value is recorded as “not soluble”.
On to “MSLDEGLLNKVKERGTLLVGLEGTYPPFSFQGDDGKLTGFEVEFAQQLAKHLGVEASLKPTKWDGMLASLDSKRIDVVINQVTISDERKKKYDFSTPYTISGIQALVKKGNEGTIKTADDLKGKKVGVGLGTNYEEWLRQNVQGVDVRTYDDDPTKYQDLRVGRIDAILVDRLAALDLVKKTNDTLAVTGEAFSRQESGVALRKGNEDLLKAVNDAIAEMQKDGTLQALSEKWFGADVTEGHHHHHH”, for which the “soluble on expression in E. coli” value was “soluble”.
Next, “MSSSLLASLSRLSLLQTRQIHQTIPAGSSVFMKRQKKIDPEVAKQRETRRRKRLEKDIRQMQKHSKKPKPVDELTLDVKSAKNIGERRRPRTELTLEQIDERAIALKDYTRSRLALQQEDDAWIRGAIESQRKALNELKMLKLELYEAAVQPAAKDLPLIVQGPSLTPPIRNYEAPDGDYIDTTRNWAS”: “not soluble”; “MGSDKIHHHHHHMNIKQLHYFLVVAEEKQITAAAKRLYIAQPPLSYQLKQLEKELGAQLFKRTAHGIELTDAGQTLQSYASEILSLAQNAKNQVHKTISGELGTVAMGIVSSSTGYMPIAAFKELTQFYPEINFDIYEDNTFGVLDKLEKKTIDMGIVRTPYNRTGLNAKTLTTEKMMAVTNDITLLHKKELRIEDLKDQPLIIYRRFEEMFNQTFAHHGIKPFYAMKCDDSRTAITWAKQNMGLALVPESIATTYAKNKMIAVKHVNWITHLQLVWRKDQIVTPLMKKIISLVK”: “not soluble”; “AIANGTELRETLEDLIKEVVQASREALDTQGELNERNEAALRTLEAQWRQRLIEELHEQGSLRVVLCRTDLLVPGSGATGTTTTNRTDPLRYVYETLRQRDPRERRRSLPPERSSQSSELEDTGTDSGEALSSGDDDDEISQVAGQPEPETANYVLSQYERVLAPSTNKQRIWRVFLRDAMVHINGQDLLLNQLQCQFDW”: “soluble”.
For the sequence “MKTASYAQSFSRAAKEYDAYAYLQQTVARELASWIEGMECESILDLGCGTGALWRALRFKPRFFTGVDLSMEMLDLHPQDPAIRLIQSDFNHPSLYEHSYDLIAASSSLQWSRDLAQSFDLIAKSAQNVAFAIFTSESLWEIHDYVDSHSPIPSKERIESLLKERFAGEFELKRYPLSFPSRVAMLSYLKGSGISGGRRLGFAQSKKLIQSAPFERLTFEVLFFVGKPLKADQK”, the “soluble on expression in E. coli” value is recorded as “not soluble”.
Next, “MDEKTKKAEEMALSLTRAVAGGDEQVAMKCAIWLAEQRVPLSVQLKPEVSPTQDIRLWVSVEDAQMHTVTIWLTVRPDMTVASLKDMVFLDYGFPPVLQQWVIGQRLARDQETLHSHGVRQNGDSAYLYLLSARNTSLNPQELQRERQLRMLEDLGFKDLTLQPRGPLEPGPPKPGVPQEPGRGQPDAVPEPPPVGWQCPGCTFINKPTRPGCEMCCRARPEAYQVPASYQPDEEERARLAGEEEALRQYQQRKQQQQEGNYLQHVQLDQRSLVLNTEPAECPVCYSVLAPGEAVVLRECLHTFCRECLQGTIRNSQEAEVSCPFIDNTYSCSGKLLEREIKALLTPEDYQRFLDLGISIAENRSAFSYHCKTPDCKGWCFFEDDVNEFTCPVCFHVNCLLCKAIHEQMNCKEYQEDLALRAQNDVAARQTTEMLKVMLQQGEAMRCPQCQIVVQKKDGCDWIRCTVCHTEICWVTKGPRWGPGGPGDTSGGCRCRVNGIPCHPSCQNCH”: “soluble”; “MNTRIKPVRSFLFVPGNKESMLDKAAQAGADALILDLEDSVPSPEKTAARELVAKKIPELIAQNQRIWVRINRTAHIYDLDDILAVAPAGIEGIYISKPGGPEDVYMASCMIAEAEARANLPLGSIGLIPLLETARSMQLCYDIAQMPRVAGIVGATARNADMGRALKFVWTAEGRETEYLKSRVVMAARAAGKQAIGGLWQQIKDLDGLAKSSAFDRQLGMSGELVLHPMQVETINRTYTPTAEDVAYYQGMIEALDAAQAQGRASVMYEGEHIDIAHVKTAHEVIALAQSFGN”: “not soluble”.
